Assay results published in patent publication US12227570B2, “Anti-CEACAM6 antibodies and methods of use” (Singapore Health Services PTE LTD, priority 2016, dated 2025).

Assays:
[1] = test system: PC-9 Gefitinib resistant clones (CL75, CL86, CL131) and parental PC-9; assay: Flow cytometry binding on PC-9 and gefitinib resistant PC-9 clones; type: cell-based
Procedure: (§1) Cells were harvested as single cell suspensions using trypsin. 1E5 cells were used per sample, and incubated with 100 μl of mAb culture supernatant for 30 min. Cells were then washed with 1% bovine serum albumin in PBS, and further incubated with 100 μl of goat anti-mouse antibody fluorescein isothiocyanate (FITC)-conjugated (1:500, DAKO, Denmark) for 15 min at 4° C. in the dark. Cells were again washed and resuspended in 200 μL of 1% BSA/PBS for analysis on Guava® easy Cyte 8HT Benchtop Flow Cytometer (Merck Millipore, USA). For interrogation of […] binding, cells were fixed with 4% PFA/PBS (Affymetrix, USA) at room temperature for 10 min, washed in PBS, and permeabilised with 0.1% triton/PBS for 5 min at room temperature, before proceeding with incubation with mAb supernatant/primary antibody. For staining with propidium iodide, PI was added to a final concentration of 5 μg/mL for 5 min just prior to analysis by the flow cytometer.

[2] = test system: normal cell lines (fibroblasts, endothelial and epithelial cells) and primary PBMCs; assay: Flow cytometry binding on normal cells; type: cell-based
Procedure: as §1

cancer cell lines = assay: IHC staining on FFPE cell line array; type: cell-based; conditions: gastric, lung, colorectal and pancreatic cancer cell lines
Procedure: (§2) TMA slides containing FFPE tissues were first heated in an oven at 60° C. for 30 min to remove any solvents. The slides were then dewaxed and re-hydrated through sequential immersion in Histoclear (2×), 100% ethanol (2×), 95% ethanol, 70% ethanol, and finally in DI water.
(§3) Heat-induced epitope retrieval was done in a solution containing 10 mM Tris Base, 1 mM EDTA, 0.05% Tween 20 at pH 9.0, and heated at 95° C. for 20 min. The container with the antigen retrieval solution and slides was then removed and allowed to cool to room temperature for an additional 20 min. The slides were then washed in DI water. Endogenous peroxidase activity was then blocked by incubation of the slides with 3% H2O2 in PBS for 30 min at room temperature. The slides were washed in DI water, followed by a blocking step with 10% normal goat serum in PBS for 30 min.
The slides were then incubated with GR6A04 at 5 μg/mL in blocking solution overnight at 4° C. The slides were then washed an incubated with a polymer-based anti-mouse secondary antibody conjugated with HRP (DAKO, USA) for 30 min at room temperature, and developed with the recommended DAB chromogen substrate solution for 2 min, and counterstained with Gill's Hematoxylin solution. […]

NSCLC tissue = assay: IHC staining on NSCLC tissue microarray with adjacent normal (LC 1001 2a)
Procedure: as §2, §3
The slides were then incubated with GR6A04 at 5 μg/mL in blocking solution overnight at 4° C. The slides were then washed an incubated with a polymer-based anti-mouse secondary antibody conjugated with HRP (DAKO, USA) for 30 min at room temperature, and developed with the recommended DAB chromogen substrate solution for 2 min, and counterstained with Gill's Hematoxylin solution.
The stained slides were subsequently dehydrated through immersion in 50% ethanol, 70% ethanol, 90% ethanol, 100% ethanol (2×) and Histoclear (2×), before mounting with a glass cover slip. The slides were then imaged with the Zeiss AxioScan Digital Slide Scanner.

PC-9 cells = assay: Antibody internalisation by immunofluorescence; type: cell-based; conditions: 37° C.; a proportion of cells not internalised at 120 min
A549−GR6A04+ = assay: ADCC reporter bioassay (Promega, Luciferase reporter for FcγR); type: cell-based
Procedure: (§4) ADCC activity was measured using a reporter bioassay (Promega; ADCC Reporter Bioassay, #G7010). The ADCC bioassay was carried out according to the manufacturer's protocol Briefly, PC-9 and A549 cells were seeded at 5,000 cells per well in a 96-well clear bottom black tissue culture plates (Corning; #3904) in low 4% IgG-serum (Promega; #G711A) media and allowed to attach and spread overnight. Serial dilutions of Hu-GR6A04 were incubated in triplicate wells for approximately 15 min at 37° C., 5% CO2. Following incubation, engineered effector cells were added to the wells at approximately 150,000 cells per well. After 6 hours, Bio-Glo™ Luciferase Assay Substrate (Promega; #G719A and #G720A) was added to the wells and luminescence was measured using the Infinite® 200 microplate reader (Tecan).

PC-9 = assay: as above; type: cell-based
Procedure: as §4

B1: GR6A04: mouse IgG1, κ anti-CEACAM6 monoclonal antibody, VH SEQ ID NO:1, VL SEQ ID NO:2, binds N-glycosylated CEACAM6 (antibody, V domains shown)
VH: SGPELVKPGASVKMSCKASGNTFTSYVMHWVKQKPGQGLEWIGYINPYNDGTKYNEKFKGKATLTSDKSSSTAYMELSSLTSEDSAVYYCARSTARATPYFYAMDYWGQGTSVTVSS
VL: DILMTQSPSSLAVTAGEKVTMRCKSSQSLLWSVNQNSYLSWYQLKQGQPPKLLLYGASIRESWVPDRFTGSGSGTDFTLTISNVHVEDLAVYYCQHNHGSFLPYTFGGGTKLEIK
modifications: Isolated antibody fragment
How did the binding ([1]; Gefitinib sensitive parental PC-9 and another GR PC-9 clone not used in immunisation) turn out when B1 was run?
Its binding is “similarly high binding”.

And the “percentage positive-binding (reactivity)” value ([1]; three PC-9 Gefitinib resistant clones used for immunisation, FL-1 gated at 2% on secondary-only control)?
The value was greater than 50%.

And the “binding on the cell surface of normal cells” value [2]?
The value was less than 8%.

What about the “IHC reactivity on FFPE cell line array” value (cancer cell lines) of the same molecule?
The value was “reactive”.

And the “positive staining adenocarcinoma (cores positive/total)” value (NSCLC tissue; LC 1001 2a)?
Its value is 9/18.

What about the “positive staining squamous (cores positive/total)” value (NSCLC tissue; LC 1001 2a) of the same molecule?
Its value is 4/27.

What about the “staining of paired adjacent normal tissue” value (NSCLC tissue; LC 1001 2a) of the same molecule?
Its value is “did not have any positive staining”.

And the “staining of paired adjacent normal tissue” value (NSCLC tissue; LC 1001 2a, listed as GR 6A04)?
Its value is “negative staining”.

What about the “positive stained lung adenocarcinoma cores” value (NSCLC tissue; focused NSCLC TMA) of the same molecule?
Its value is 50%.

What about the “positive stained squamous cell cancer cores” value (NSCLC tissue; focused NSCLC TMA) of the same molecule?
The value was 15%.

And the time to internalise (PC-9 cells)?
Its time to internalise is no more than 120 min.

What about the EC50 (A549−GR6A04+) of the same molecule?
The EC50 was 1.33 nM.

And the EC50 (PC-9)?
Its EC50 is 39.6 nM.
